# Data reported in the DeepSol protein solubility set.
# Experiment: soluble on expression in E. coli; label from the status in PepcDB or PDB records
row,Sequence,soluble on expression in E. coli
1,MGKLMEIIIISGRSGAGKSVALRALEDAGYYCVDNIPLDLLPQLTDILSQSQSSVAISLDIRNIPNSAHSLKQTLSTLQKHHQIKIIFLEADRATLIRRYSDSRRLHPLSLKDLSLEAAIDEEYRYLEPLIQHANLILDTTHLSTHSLAERLREFLRGNSEKELKIIVESFGFKYGIPLDADYVFDVRFLPNPHWDPTLRPMTGLEAPVAEFLNSHTEVNEFIYLTRHYIDTWLPMLEKNNRSYLTIAIGCTGGKHRSVYIAQQLGEYFQAKGKTVKIQHKSLERNKKI,not soluble
2,MGSDKIHHHHHHMTTQAKQPSRFDRNPLASENERLILDIVRRHGPIARSVITTHTNLTQQSVHRLIEGLIERGLLRTGAPLKGARGQPSPTIELAVESVASLGISINTDSAIICLADFSCGVIAQKKLELLPLSREATLVSLSRTLDEMLEAHNLPRDRLLGLGFAMSGFSVADDRIFNAPEPLQDWSLMDLRPILEQTFQLPVWQENNATTGAIGESLQGVGRWCQTFAYLSFNYGFGGGLILNGQPFYGFHGNAAELSGIYDPTEAPRRPALQYLLRSLQDHGIEIDSVDTLYRTFDPGWPGVEAWLEATMPQVERLVAVLIAVIDPQAIVFGGQLPPALGAMMIERCPMPSQRVHRYGVGPKEARLVLSEVKGDAAVIGAALLPLKMRYFI,not soluble
3,MLARSDRLSVVAVVEGTRKQPDPATFIGKGKAEEISQILAQTHAAMVIFNHELSPVQQRNLSMVLACRIIDRTSLILEHHHHHH,not soluble
4,SLGKILSKTAIAIVLASGLLSACTSTTDVFHNGYVMDDQSLQLIPEGSSREQVLLTMGTPSTTATFGNEVFYYISQKRVRRAAFLKPSLVEQNILAIYFNKDGVIERKANYTLQDGKVFDSISRTTPTGGKDLTFLQQLLSGGTSGANIAKS,soluble
5,MGSDKIHHHHHHMRAYDVILKKRNGEKLSREEIEFMVGGYVKGEIPDYQMAAFLMAVYFRHLDEEETYYFTETMMRSGEVLDLSEIPGTKVDKHSTGGVGDKTTLVVAPLVASAGVPVAKMSGRALGHTGGTIDKLESIPGFRTELSLEEFIKNVKKYGIAIVGQTGNLVPADKKIYALRDATATVDEISLIASSIMSKKLAGGSDAFVLDVKFGTGAFMKGFEDAKKLAFLMLRIAQQHGKKAVAVLSNMDQPLGKAVGNSLEVIEAIETLKGNGPEDLKELSLTLGALMLELAGVADFEEGKKILQEKLETGEALDKFRLLVKAQGGNERVVDDPWRVLPVAEQVVEFSAAREGFVSKIDAEKVGIASMMLGAGRKKKEDRIDHSVGIIVEKKLGDSVKKGEAIARLFVSDRSDVESALKLLKEAYVISDSPSEPPRVVEEVIK,not soluble
6,MSWTGRLQCTAAFRNGRTVILDSYNEGALKLMRPVYLNSTYPTLYLVHVGGGYVDGDSYDMEISLEPSARLMVTTQSAAKIYKTPSTPVRQYTRFSLGEQSVLEYFPDPTIAYEHARFVQETTVYITSSSTVVYGEIITPGWSESGELFRYDWIRSKLKVYQDEALVLFDHLYLDSRQHLTSMLQLGGYTHVGSLVALSPFITKEVLERFNQFMEEMPQEVRCGFSAAAVPGFSVRILAYETSAIEAIFQRVQQFIRQQCGEKTPVCWRKY,not soluble
7,MKPGIVKFALNVWPPFWGAGIKILHISEDFRTVKVRLKLRWWNKNANRTQYGGSIFSLTDPIYSLMLMGILREEYYVWDKEASINFIKPGQSDLFAEFEITDGMLDEIYQMTRNGEKCFPEFITHVKDKQGNVVSEVQRKLYVRKLEHHHHHH,soluble
8,MGSSHHHHHHSSGLVPRGSHMVASETLKTKKMEVQIKKNFPSVLQYTMTDGKVMYGQSKDVRTVEINGTNIELGDDDVTFKKVSDTEATYTLKVKDEAKKIDAVITVQITVKANQLHLNVTKIKNNLSEGIPEGNGVEENAIQTLSFPNQSLVSVRSSQENAQFTGARMSSNTQKPGDTNFAVTEDTNVTDSDYTYGFISGAGLSAGLWSNSEHDGTYVAAPVRGGSQNTRVYATTQQTGDATSLGLASAPWYYHRTVTDSKGKKYTVAETALPQMAVAIAGDENEDGAVNWQDGAIAYRDIMNNPYKSEEVPELVAWRIAMNFGSQAQNPFLTTLDNVKKVALNTDGLGQSVLLKGYGNEGHDSGHPDYGDIGQRLGGADDMNTMMEEGSKYGARFGVHVNASEMYPEAKAFSEDMVRRNSAGGLSYGWNWLDQGVGIDGIYDLASGSRVSRFADLSKEVGDNMDFIYLDVWGNLTSSGSEDSWETRKMSKMINDNGWRMTTEWGSGNEYDSTFQHWAADLTYGGYTSKGENSEVMRFLRNHQKDSWVGDYPQYGGAANAPLLGGYNMKDFEGWQGRNDYAAYIKNLYTHDVSTKFIQHFKVTRWVNNPLLTADNGNAAAVSDPNTNNGNEQITLKDSNGNVVVVSRGSNDTSSAAYRQRTITFNGVKVASGVVSAGDGSATGDESYLLPWMWDSFTGKLVKDSEQKLYHWNTKGGTTTWTLPDSWKNLSSVKVYQLTDQGKTNEQTVAVSGGKVTLTADAETPYVVYKGEAKQIQVNWSEGMHVVDAGFNGGSNTLTDNWTVSGSGKAEVEGDNNAMLRLTGKVDVSQRLTDLKAGQKYALYVGVDNRSTGDASVTVTSGGKVLATNSTGKSIAKNYIKAYGHNTNSNTENGSSYFQNMYVFFTAPENGDATVTLSHKSTDGAHTYFDDVRIVENQYSGITYEKDGTLKSLTNGFENNAQGIWPFVVSGSEGVEDNRIHLSELHAPFTRAGWDVKKMDDVLDGTWSVKVNGLTQKGTLVYQTIPQNVKFEAGAKYKVSFDYQSGSDDIYAIAVGQGEYSAGSVKLTNLKKALGETGKAEFELTGGVNGDSWFGIYSTATAPDLQGSTGNAQDFGGYKDFVLDNLKIERIESQTRTKAEAQDKVKEIRGKYDSKRAELSDAAWQQYQDTLVKARVLINKNGATAEDFTKAYDILVALDEYMKTAPGNESSDKYDVAADGSDELGGYTVATGSEEPTAGLPSEGPADLAQDGNDSTHWHTSWSENAVGNGTAWYQFNLNEPTTINGLRYLPRSGGMNANGKIKGYKITLTLADGTTKDVVTDAEFSTTTMWQKASFDAVENVTAVRLTVLSSAGQSDSQANKFASAAELRLTTDRE,soluble
9,MGSDKIHHHHHHTEETAKVVPMAVITPAINQLTDQEKAEGWALLFDGKTTKGWRGAHKDAFPDHGWMVKDGELIVQKSDGSESTNGGDIVTEGEYSAFEFSVDFKITEGANSGIKYFVTEQEKQKGSAYGLEFQLLDDAKHPDAKLYTTFPGSRTLGSLYDLKKSENIHFNGVGEWNTAVVKVFPNNHVEHWLNGVKVLEYERGSKEFRDLVKGSKYADPSYNAGGAFGEAPKGHILLQDHGDEVAFRNIKVKELK,not soluble
10,GPGSMSFAQNGTAPSTPAQQSKPEPDASPVAGEGSTSGRCAFDPEALRNLIVNYLPPLMNEAQVYELFGQFGRIESVKIIYDKITGESRGYGFVKYYFFFSATYAVSCLNRFEIGGKKLKVAYANAPAAKEAYDMLRLSAVALSVQQQQAMQSMYYHQMVLAQEQQGASAASSVAASAPMVGGADYGPYMNRVGGGYAMRQRESGAGYAQGMYPGMVAGGSVYLAGPFASGSRIVTPAIAPIGF,not soluble
11,MSDLFIHPELRFHSYGTWLRRRFGCNVSKVNVDGGFTCPNRDGSRGTGGCIYCDNASFSPGGTVPDKSIELQMAEGMAYHRQRLGSEKFIIYFQKFTNTYAPAARLRDLYTRALSHPDVVGISVGTRPDALADEALELLADLAQEHYVCIELGLQSMDDAILERINRGHTLDEYLRTVDRIAGRGIALCTHLIYGFPGETREGFLKTAHLLAGLPVDSVKLHQLHAVKGTRLAELYHRREFVPITLAEYVTTACDFLELLPPRI,not soluble
12,MFKKLSVLALAMIISLSITACNSKENKANDESNTKVTTADDSKEKETLFVYSGAGLKKPMDEIAKKFEKENNVKVEYSYAGSAQLIAQIETSHKGDVFIVGSEPIYSKAFEKELVGEHKTVAHHTPAIVVPKGNPANIQKLEDLNKDGVKLILGDKESNAIGKTTQKILEKNNLKSINDNVVSTAATVNEMIVQLTSSKADATIATKDSVFGNEDVEVIEIAQDKNIDQLISAGIVNYSDKKDLANKFINYIESDEAKQIFKKYGFEPVK,not soluble
13,MGSDKIHHHHHHMELKSAEEKSLYYRNKIKEVIDEVGKVVVGQKYMINRLLIGICTGGHILLEGVPGLAKTLSVNTLAKTMDLDFHRIQFTPDLLPSDLIGTMIYNQHKGNFEVKKGPVFSNFILADEVNRSPAKVQSALLECMQEKQVTIGDTTYPLDNPFLVLATQNPVEQEGTYPLPEAQVDRFMMKIHLTYLDKESELEVMRRVSNMNFNYQVQKIVSKNDVLEIRNEINKVTISESLEKYIIELVFATRFPAEYGLEAEASYILYGASTRAAINLNRVAKAMAFFNNRDYVLPEDIKEVAYDILNHRIILNYEAEAEGISTRQIIETILRKVNITKA,not soluble
